Source: PMC7914648 (Pharmaceuticals, 2021)
“Also recorded” adds a separate entry of the source.

Tests used:
[1] = Aqueous solubility determination; assay type: physicochemical
Description: For TAT-PAPTP and An2-PAPTP, three distinct suspensions were prepared by diluting 25 mM stock solutions in DMSO to 100 μM, in 0.9% NaCl saline or water (DMSO < 0.4%). The suspensions were sonicated 5 min and immediately analyzed. The suspensions were then centrifuged at 12,000× g, 18 °C, for 1 and 2 h, and the supernatants were analyzed by HPLC/UV at the end of each centrifugation. An additional analysis was performed after 24 h of standing. The chromatographic peak areas were used to determine the concentration of the compound in the supernatants, based on calibration curves built using solutions in DMSO.

[2] = Tissue distribution of An2-PAPTP and metabolites (liver, spleen, kidneys, heart) after i.v. injection; assay type: in vivo, mouse
Excerpt: The total amount of An2-PAPTP and its metabolites, summarized in Table 3, is comprehensive of all the species having the characteristic psoralenic UV spectrum obtained by the overall extraction procedure (i.e., from organic solvent extraction and basic hydrolysis of the remaining pellet), and represents and underestimation of the real concentration in the tissue (see Section 4.7.3). This is because no recovery yield correction was applied, since it was impossible to identify most of the species extracted, and because PAPTPL extracted after high-pH hydrolysis of the pellet could come either from An2-PAPTP or from metabolites. For quantification in HPLC analysis, all the psoralenic species were assumed to have the same molar extinction coefficient as PAPTPL, an assumption justified by the near-identity observed for all the available psoralen-containing molecules.
The liver, spleen, kidneys, heart obtained from untreated mice were weighed and homogenized with PBS pH 7.4 (1 vol) with a potter. The pre-established amount of PAPTPL was added into tissue homogenates or blood and, after thorough vortexing, 5 vol of acetone were added and the sample was sonicated for 2 min. Subsequently, 5 vol of ACN containing 0.1% TFA were added and the sample was sonicated for 5 min. The sample was then centrifuged at 12,000× g for 7 min at 4 °C and the supernatant was collected, concentrated with a Hetovac VR-1, and analyzed via HPLC-UV.
Brain and liver obtained from untreated mice were weighed and homogenized with PBS pH 7.4 (1 vol) with a potter. The pre-established amount of analyte was added into tissue homogenates and, after thorough vortexing, 5 vol of acetone were added and the sample was sonicated for 2 min. Subsequently, 5 vol of ACN containing 0.1% trifluoracetic acid (TFA) were added and the sample was sonicated for 5 min. The sample was then centrifuged at 12,000× g for 7 min at 4 °C and the supernatant was collected, concentrated with a Hetovac VR-1, and analyzed via HPLC-UV.
To quantify the amount of An2-PAPTP stuck in the tissue, the pellet remaining after the procedure described above was incubated with intermittent Vortexing at 60 °C for 3 h with PBS pH 12.5/ACN 1:1 and then centrifuged at 12,000× g for 7 min. HPLC-UV analysis of the supernatant, measuring PAPTPL hydrolyzed from the tissue, thus indirectly reflects the amount of An2-PAPTPL in the pellet (Scheme 3). Quantification was as described for PAPTPL.
A stock solution of the peptide-PAPTP conjugates was prepared in DMSO. TAT-PAPTP was administered at 8 and 5 μmol/kg bw and An2-PAPTP only at 5 μmol/kg bw. The calculated quantity of drugs was diluted from the stock solution in saline or mouse plasma to a final volume of 200 μL.

[3] = An2-PAPTP 5 µmoles/kg bw i.v., all psoralenic species, 312 nm, no recovery correction, mean ± SEM, n = 5
[4] = An2-PAPTP i.v., found in one animal out of four
[5] = An2-PAPTP i.v., mean ± SEM, n = 4
[6] = An2-PAPTP i.v., mean ± SEM, n = 5
[7] = An2-PAPTP i.v., mean ± SEM, n = 6

CC[C@H](C)[C@H](NC(=O)Oc1ccc(CCCOc2ccc([P+](CCCc3ccc(OCCCCOc4c5ccoc5cc5oc(=O)ccc45)cc3)(c3ccccc3)c3ccccc3)cc2)cc1)C(=O)N[C@H](C(=O)N[C@@H](Cc1ccccc1)C(=O)N[C@@H](Cc1ccccc1)C(=O)N[C@@H](Cc1ccc(O)cc1)C(=O)NCC(=O)NCC(=O)N[C@@H](CO)C(=O)N[C@@H](CCCNC(=N)N)C(=O)NCC(=O)N[C@@H](CCCCN)C(=O)N[C@@H](CCCNC(=N)N)C(=O)N[C@@H](CC(N)=O)C(=O)N[C@@H](CC(N)=O)C(=O)N[C@@H](Cc1ccccc1)C(=O)N[C@@H](CCCCN)C(=O)N[C@H](C(=O)N[C@@H](CCC(=O)O)C(=O)N[C@@H](CCC(=O)O)C(=O)N[C@@H](Cc1ccc(O)cc1)C(=O)O)[C@@H](C)O)[C@@H](C)O [An2-PAPTP]
solubility in 10 mM phosphate buffer ([1]; 10 mM phosphate buffer, supernatants after centrifugation, HPLC): precipitated
solubility in 0.9% NaCl saline ([1]; 0.9% NaCl saline, kinetic, 25 mM DMSO stock diluted to 100 μM (DMSO < 0.4%), sonicated 5 min, centrifuged 12,000 × g 18 °C 1 and 2 h, supernatant HPLC/UV, detection limit 0.1 µM): precipitated in saline; also recorded: insoluble in saline
solubility in water ([1]; water, kinetic, 25 mM DMSO stock diluted to 100 μM (DMSO < 0.4%), sonicated, centrifuged 12,000 × g 18 °C, supernatant HPLC/UV): above 100 μM
Heart Psoralenic Species (nmol/g Tissue), 15 min [2, 3]: 0.2 ± 0.1 nmol/g Tissue
Kidney Psoralenic Species (nmol/g Tissue), 15 min [2, 3]: 5 ± 4 nmol/g Tissue
Spleen Psoralenic Species (nmol/g Tissue), 15 min [2, 3]: 28 ± 9 nmol/g Tissue
Liver Psoralenic Species (nmol/g Tissue), 15 min ([2]; An2-PAPTP 5 µmoles/kg bw i.v., all species with psoralenic UV spectrum, 312 nm, no recovery correction, mean ± SEM, n = 5): 23 ± 3 nmol/g Tissue
degradation of the peptide chain by liver peptidases ([2]; An2-PAPTP 5 µmoles/kg bw i.v., liver, in vivo): degraded the peptide chain nearly completely in little more than one hour
Heart Psoralenic Species (% of Administered Dose), 30 min, single animal [2, 4]: 0.07 % of Administered Dose
Heart Psoralenic Species (nmol/g Tissue), 30 min, single animal [2, 4]: 0.36 nmol/g Tissue
Kidney Psoralenic Species (% of Administered Dose), 30 min [2, 5]: 0.32 ± 0.07 % of Administered Dose
Spleen Psoralenic Species (% of Administered Dose), 30 min [2, 5]: 0.27 ± 0.09 % of Administered Dose
Heart Psoralenic Species (% of Administered Dose), 15 min [2, 6]: 0.07 ± 0.01 % of Administered Dose
Kidney Psoralenic Species (% of Administered Dose), 15 min [2, 6]: 1.2 ± 0.8 % of Administered Dose
Spleen Psoralenic Species (% of Administered Dose), 15 min [2, 6]: 1.2 ± 0.3 % of Administered Dose
Kidney Psoralenic Species (% of Administered Dose), 60 min [2, 7]: 0.31 ± 0.03 % of Administered Dose
Spleen Psoralenic Species (% of Administered Dose), 60 min [2, 7]: 0.8 ± 0.2 % of Administered Dose
Heart Psoralenic Species (% of Administered Dose), 60 min ([2]; An2-PAPTP i.v., n = 6): 0 % of Administered Dose
Heart Psoralenic Species (nmol/g Tissue), 60 min ([2]; An2-PAPTP i.v., n = 6): 0 nmol/g Tissue
Liver Psoralenic Species (nmol/g Tissue), 30 min ([2]; as above, 30 min, n = 4): 17 ± 2 nmol/g Tissue
Liver Psoralenic Species (nmol/g Tissue), 60 min ([2]; as above, 60 min, n = 6): 11 ± 3 nmol/g Tissue
Kidney Psoralenic Species (nmol/g Tissue), 30 min ([2]; as above, n = 4): 1.3 ± 0.2 nmol/g Tissue
Spleen Psoralenic Species (nmol/g Tissue), 30 min ([2]; as above, n = 4): 4.3 ± 1.4 nmol/g Tissue
Kidney Psoralenic Species (nmol/g Tissue), 60 min ([2]; as above, n = 6): 1.2 ± 0.1 nmol/g Tissue
Spleen Psoralenic Species (nmol/g Tissue), 60 min ([2]; as above, n = 6): 11 ± 3 nmol/g Tissue
